According to patent publication US20240294569A1, “MODULATORS OF SORTILIN ACTIVITY” (Insusense ApS, priority 2021, published 2024):

Molecular target: 6his-Sortilin (human) (UniProt Q99523)
Experiment: SPA, displacement of [3H]-neurotensin from 6his-Sortilin

IC50: 160 nM
Substance: (S)-2-((S)-2-((S)-3-(4-Hydroxyphenyl)-2-((S)-pyrrolidine-2-carboxamido)propanamido)-3-morpholinopropanamido)-5,5-dimethylhexanoic acid (peptide)
